Assay results as given in paper PMC7057996, “Human glutaredoxin-1 can transfer copper to isolated metal binding domains of the P1B-type ATPase, ATP7B” (Scientific Reports, 2020).

Assays:
[1] = target: T1, ATP7B metal binding domains 5-6 (human, UniProt P35670 486-633); test: NMR titration; 15N-1H HSQC of apo-15N-hGrx1 (320-350 uM) titrated with unlabelled apo-Atox1 or apo-WLN5-6 to 2.0:1 (partner:hGrx1); no Cu; 4 °C; 10 mM MES/Na, 50 mM NaCl, 1 mM TCEP, pH 6.0; intensity changes of the Cys26 and Thr69 peaks fitted to a 1:1 binding model; settings: both partners purified
T1 construct: Unlabelled apo protein in the NMR titrations; Cloned in pET-24d; also called WLN5-6; ATP7B MBDs 5-6; source: E. coli BL21 Codon Plus (DE3), purified (anion exchange, SEC)
T1 sequence (looked up): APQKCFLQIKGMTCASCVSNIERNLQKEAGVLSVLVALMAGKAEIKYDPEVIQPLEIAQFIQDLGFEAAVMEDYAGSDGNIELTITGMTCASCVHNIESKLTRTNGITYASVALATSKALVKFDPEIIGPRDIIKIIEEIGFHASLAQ

[2] = target: T1, ATP7B metal binding domains 5-6; test: cell-based or functional assay

B1: human glutaredoxin-1 (enzyme)
chain: MAQEFVNCKIQPGKVVVFIKPTCPYCRRAQEILSQLPIKQGLLEFVDITATNHTNEIQDYLQQLTGARTVPRVFIGKDCIGGCSDLVSLQQSGELLTRLKQIGALQ
notes: human glutaredoxin-1 (hGrx1), UniProtKB P35754; printed as a 106-residue construct (excluding non-native residues left at the N-terminus by cleavage); 15N-labelled (or 13C/15N-labelled) for NMR; used as apo protein and loaded with Cu(I) (1:1); Non-native residues of the PreScission site remain at the N-terminus; also called hGrx1; Grx1; source: E. coli BL21 Codon Plus (DE3), purified (glutathione …)
Kd [1]: 7 ± 4 µM
Cu(I) distribution WLN5-6:hGrx1/Atox1 after incubation of Cu(I)-hGrx1 with apo-Atox1 and apo-WLN5-6 at 1:1:1, SEC-ICP-MS [2]: ~9 ratio WLN5-6:hGrx1/Atox1
